Assay results as given in PMC7374887, “Severe syndromic ID and skewed X-inactivation in a child with NAA10 dysfunction and a novel heterozygous de novo NAA10 p.(His16Pro) variant - a case report” (BMC Medical Genetics, 2020).

Target: T1, NAA10 H16P-V5 (human, UniProt P41227-1 1-235, H16P)
T1 sequence (looked up): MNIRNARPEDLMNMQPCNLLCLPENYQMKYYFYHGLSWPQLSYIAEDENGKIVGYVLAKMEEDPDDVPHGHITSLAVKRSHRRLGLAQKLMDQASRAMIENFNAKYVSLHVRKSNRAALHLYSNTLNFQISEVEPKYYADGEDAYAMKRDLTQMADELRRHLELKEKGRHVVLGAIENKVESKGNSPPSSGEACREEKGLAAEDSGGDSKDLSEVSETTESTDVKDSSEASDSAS
Assay: cell-based or functional assay

Nt-acetylation assay of the V5 immunoprecipitate towards the monomeric NAA10 substrate EEEI24, normalized to NAA10-V5, relative to NAA10 WT-V5: 1.5 fold
B1: NAA15 (natural protein, human (endogenous in HeLa), UniProt Q9BXJ9 1-866, looked up)
chain: MPAVSLPPKENALFKRILRCYEHKQYRNGLKFCKQILSNPKFAEHGETLAMKGLTLNCLGKKEEAYELVRRGLRNDLKSHVCWHVYGLLQRSDKKYDEAIKCYRNALKWDKDNLQILRDLSLLQIQMRDLEGYRETRYQLLQLRPAQRASWIGYAIAYHLLEDYEMAAKILEEFRKTQQTSPDKVDYEYSELLLYQNQVLREAGLYREALEHLCTYEKQICDKLAVEETKGELLLQLCRLEDAADVYRGLQERNPENWAYYKGLEKALKPANMLERLKIYEEAWTKYPRGLVPRRLPLNFLSGEKFKECLDKFLRMNFSKGCPPVFNTLRSLYKDKEKVAIIEELVVGYETSLKSCRLFNPNDDGKEEPPTTLLWVQYYLAQHYDKIGQPSIALEYINTAIESTPTLIELFLVKAKIYKHAGNIKEAARWMDEAQALDTADRFINSKCAKYMLKANLIKEAEEMCSKFTREGTSAVENLNEMQCMWFQTECAQAYKAMNKFGEALKKCHEIERHFIEITDDQFDFHTYCMRKITLRSYVDLLKLEDVLRQHPFYFKAARIAIEIYLKLHDNPLTDENKEHEADTANMSDKELKKLRNKQRRAQKKAQIEEEKKNAEKEKQQRNQKKKKDDDDEEIGGPKEELIPEKLAKVETPLEEAIKFLTPLKNLVKNKIETHLFAFEIYFRKEKFLLMLQSVKRAFAIDSSHPWLHECMIRLFNTAVCESKDLSDTVRTVLKQEMNRLFGATNPKNFNETFLKRNSDSLPHRLSAAKMVYYLDPSSQKRAIELATTLDESLTNRNLQTCMEVLEALYDGSLGDCKEAAEIYRANCHKLFPYALAFMPPGYEEDMKITVNGDSSAEAEELANEI
